In general, IC50 refers to the concentration that inhibits the measured activity by half.

The source of these data is paper PMC11982978, “Cancer hotspot mutations rewire ERK2 specificity by selective exclusion of docking interactions” (The Journal of Biological Chemistry, 2025).

Assay [1] addresses T1, Active phosphorylated His6-tagged ERK2 R133K (rat (p-0033 says mouse)), P63086.
T1 chain: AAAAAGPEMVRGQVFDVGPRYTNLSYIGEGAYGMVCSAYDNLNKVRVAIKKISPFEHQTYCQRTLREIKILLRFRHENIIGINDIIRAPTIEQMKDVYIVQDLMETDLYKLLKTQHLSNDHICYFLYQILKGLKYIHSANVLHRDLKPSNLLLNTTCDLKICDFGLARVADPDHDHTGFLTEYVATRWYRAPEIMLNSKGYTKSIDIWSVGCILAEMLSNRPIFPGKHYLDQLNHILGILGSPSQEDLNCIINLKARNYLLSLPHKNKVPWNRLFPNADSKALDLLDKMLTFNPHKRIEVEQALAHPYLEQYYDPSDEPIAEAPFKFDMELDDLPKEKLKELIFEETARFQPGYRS
The assay is described as follows: competitive peptide kinase assay; D-peptide titrated as competitive inhibitor of 10 nM ERK2 on 5 μM D-site dependent reporter peptide (AQT0376), 10 μM ATP; 54 mM HEPES pH 7.4, 1.2 mM DTT, 0.01% Brij-35, 1% glycerol, 0.2 mg/ml BSA, 10 mM MgCl2; fluorescence read-out; IC50 as relative binding affinity.

For assay [2], the target named is T2, Active phosphorylated His6-tagged ERK2 WT (rat (p-0033 says mouse)), P63086. The description is as above.
Assay [3] deals with T3, Active phosphorylated His6-tagged ERK2 E320K (rat (p-0033 says mouse)), P63086.
T3 chain: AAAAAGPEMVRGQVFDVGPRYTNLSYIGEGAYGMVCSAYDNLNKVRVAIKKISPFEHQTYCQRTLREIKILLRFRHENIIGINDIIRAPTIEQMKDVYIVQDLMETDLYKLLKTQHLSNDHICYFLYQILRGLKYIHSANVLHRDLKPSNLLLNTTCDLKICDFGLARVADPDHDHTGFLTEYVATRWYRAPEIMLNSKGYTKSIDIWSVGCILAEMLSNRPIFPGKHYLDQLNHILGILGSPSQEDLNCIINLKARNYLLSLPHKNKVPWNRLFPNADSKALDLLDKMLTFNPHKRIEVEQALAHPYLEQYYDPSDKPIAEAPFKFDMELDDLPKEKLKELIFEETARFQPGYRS
Described as above.

The target of assay [4] is T4, Active phosphorylated His6-tagged ERK2 D319N (rat (p-0033 says mouse)), P63086.
T4 chain: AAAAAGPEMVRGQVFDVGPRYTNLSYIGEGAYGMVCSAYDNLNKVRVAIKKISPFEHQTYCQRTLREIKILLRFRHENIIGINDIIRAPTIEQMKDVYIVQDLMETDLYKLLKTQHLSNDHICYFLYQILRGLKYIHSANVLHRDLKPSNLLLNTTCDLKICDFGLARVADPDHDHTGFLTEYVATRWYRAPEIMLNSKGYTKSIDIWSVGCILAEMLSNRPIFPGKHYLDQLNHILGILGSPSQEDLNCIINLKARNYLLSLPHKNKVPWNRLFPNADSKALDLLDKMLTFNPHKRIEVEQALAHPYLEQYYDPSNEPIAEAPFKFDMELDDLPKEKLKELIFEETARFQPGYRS
The assay is described as above.

The target of assay [5] is T2, Active phosphorylated His6-tagged ERK2 …. The following applies: modification not given; phosphorylated (active form; sites not given).
Assay [6] has as its target T3, Active phosphorylated His6-tagged ERK2 …. Particulars: modification not given; phosphorylated (active form; sites not given).
Assay [7] addresses T4, Active phosphorylated His6-tagged ERK2 …. The following applies: modification not given; phosphorylated (active form; sites not given).
In assay [8] the target is T1, Active phosphorylated His6-tagged ERK2 …. Particulars: modification not given; phosphorylated (active form; sites not given).
Assay [9] has as its target T2, Active phosphorylated His6-tagged ERK2 …. Particulars: modification not given; phosphorylated (active form; sites not given). This is another data set of the same source.
Assay [10] deals with T3, Active phosphorylated His6-tagged ERK2 …. The following applies: modification not given; phosphorylated (active form; sites not given).
Assay [11] addresses T1, Active phosphorylated His6-tagged ERK2 …. The following applies: modification not given; phosphorylated (active form; sites not given).
Assay [12] addresses T4, Active phosphorylated His6-tagged ERK2 …. Particulars: modification not given; phosphorylated (active form; sites not given).
For assay [13], the target named is T2, Active phosphorylated His6-tagged ERK2 …. The following applies: modification not given; phosphorylated (active form; sites not given). This is another data set of the same source.
For assay [14], the target named is T3, Active phosphorylated His6-tagged ERK2 …. Particulars: modification not given; phosphorylated (active form; sites not given).
Assay [15] concerns the target T4, Active phosphorylated His6-tagged ERK2 …. The following applies: modification not given; phosphorylated (active form; sites not given).
Assay [16] concerns the target T1, Active phosphorylated His6-tagged ERK2 …. The following applies: modification not given; phosphorylated (active form; sites not given).

Where two headings read alike, the source gives them in different places. Ends that are not written are not given here.

B1: ISG20 D-peptide G2+ (peptide)
chain: IGRARRGLPRLAVSD
modifications: not checked
Turning to B1, the IC50 in [1] was 150 µM; in assay [2], 120 µM; in assay [3] it was 170 µM; in assay [4] it was 150 µM.

B2: MAP2K2 (peptide)
chain: ARRKPVLPALTINP
modifications: not fully specified (some residues, N-terminus)
Take B2: the half-inhibitory concentration (IC50) is 23 µM in [5], 41 µM in assay [6], 23 µM in [7] and 29 µM in [8].

B3: ISG20 D-peptide G7+ (peptide)
chain: IRARRGGLPRLAVSD
modifications: not checked
With B3, the IC50 turned out to be 170 µM in assay [1], 75 µM in [2], 210 µM in assay [3] and 150 µM in assay [4].

B4: ELK1 (peptide)
chain: PQKGRKPRDLELPL
modifications: not fully specified (some residues, N-terminus)
As to B4, the concentration for half-maximal inhibition (IC50) in assay [9] came out at 35 µM; in assay [10] it was 43 µM; in assay [11] it was 58 µM; in assay [12], 32 µM.

B5: PTPN5 (peptide)
chain: GLQERRGSNVSLTL
modifications: not fully specified (some residues, N-terminus)
In the case of B5, the IC50 was 42 µM in [13], 600 µM in [14], 600 µM in [15] and 760 µM in assay [16].
